Target: the molecule itself
Experiment: AUC

B1: human VASP^1-380aa, unlabeled wild type (untagged hVASP^1-380aa) (natural protein)
chain: GSMSETVICSSRATVMLYDDGNKRWLPAGTGPQAFSRVQIYHNPTANSFRVVGRKMQPDQQVVINCAIVRGVKYNQATPNFHQWRDARQVWGLNFGSKEDAAQFAAGMASALEALEGGGPPPPPALPTWSVPNGPSPEEVEQQKRQQPGPSEHIERRVSNAGGPPAPPAGGPPPPPGPPPPPGPPPPPGLPPSGVPAAAHGAGGGPPPAPPLPAAQGPGGGGAGAPGLAAAIAGAKLRKVSKQEEASGGPTAPKAESGRSGGGGLMEEMNAMLARRRKATQVGEKTPKDESANQEEPEARVPAQSESVRRPWEKNSTTLPRMKSSSSVTTSETQPCTPSSSDYSDLQRVKQELLEEVKKELQKVKEEIIEAFVQELRKRGSP
With B1 the “stoichiometry N” value was 4.

Source: publication PMC3003327 (The Journal of Cell Biology, 2010)
